Consider 1 molecule from paper PMC3918441 (Cell reports, 2014).

The target of one assay is human KDM5D PHD1 finger (human, Zn2+-bound; 15N-labelled). Nature of the assay: NMR titration.
The next assay concerns the target T1, yeast KDM5 PHD finger (S. cerevisiae, Zn2+-bound; 15N-labelled).
T1 chain: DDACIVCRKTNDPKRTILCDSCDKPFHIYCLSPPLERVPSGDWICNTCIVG
Nature of the assay: NMR titration.

For the molecule ARTKQTARKSTG (peptide, UniProt P68431 2-13, looked up) [H3K4me0 peptide (aa 1-12 of H3)], the results for the Kd with human KDM5D PHD1 finger and with yeast KDM5 PHD finger were 3.5 mM and 0.117 mM, respectively.
